Laboratory results from article PMC8131363 (Scientific Reports, 2021).
pEC50: −log10 of the molar value. Starred links: 1 amine or outer side, 2 acyl side, 3 side chain; linkers in the order of their positions; H or OH if unused. Non-standard residues stand in square brackets, D forms with d. No end group written: not given here. γGlu = O=C(O)[C@H](CCC(=O)[*:2])N[*:1]; βAsp = O=C(O)[C@H](CC(=O)[*:2])N[*:1]; Abu = CC[C@H](N)C(=O)O

Key:
[1] = molecular target: T1, cCaSR (Felis catus, UniProt C7FF08); experiment: cell-based; conditions: agonist assay; for EC50: > 0.01 M = maximal response not reached
T1 sequence (C7FF08 1-1081): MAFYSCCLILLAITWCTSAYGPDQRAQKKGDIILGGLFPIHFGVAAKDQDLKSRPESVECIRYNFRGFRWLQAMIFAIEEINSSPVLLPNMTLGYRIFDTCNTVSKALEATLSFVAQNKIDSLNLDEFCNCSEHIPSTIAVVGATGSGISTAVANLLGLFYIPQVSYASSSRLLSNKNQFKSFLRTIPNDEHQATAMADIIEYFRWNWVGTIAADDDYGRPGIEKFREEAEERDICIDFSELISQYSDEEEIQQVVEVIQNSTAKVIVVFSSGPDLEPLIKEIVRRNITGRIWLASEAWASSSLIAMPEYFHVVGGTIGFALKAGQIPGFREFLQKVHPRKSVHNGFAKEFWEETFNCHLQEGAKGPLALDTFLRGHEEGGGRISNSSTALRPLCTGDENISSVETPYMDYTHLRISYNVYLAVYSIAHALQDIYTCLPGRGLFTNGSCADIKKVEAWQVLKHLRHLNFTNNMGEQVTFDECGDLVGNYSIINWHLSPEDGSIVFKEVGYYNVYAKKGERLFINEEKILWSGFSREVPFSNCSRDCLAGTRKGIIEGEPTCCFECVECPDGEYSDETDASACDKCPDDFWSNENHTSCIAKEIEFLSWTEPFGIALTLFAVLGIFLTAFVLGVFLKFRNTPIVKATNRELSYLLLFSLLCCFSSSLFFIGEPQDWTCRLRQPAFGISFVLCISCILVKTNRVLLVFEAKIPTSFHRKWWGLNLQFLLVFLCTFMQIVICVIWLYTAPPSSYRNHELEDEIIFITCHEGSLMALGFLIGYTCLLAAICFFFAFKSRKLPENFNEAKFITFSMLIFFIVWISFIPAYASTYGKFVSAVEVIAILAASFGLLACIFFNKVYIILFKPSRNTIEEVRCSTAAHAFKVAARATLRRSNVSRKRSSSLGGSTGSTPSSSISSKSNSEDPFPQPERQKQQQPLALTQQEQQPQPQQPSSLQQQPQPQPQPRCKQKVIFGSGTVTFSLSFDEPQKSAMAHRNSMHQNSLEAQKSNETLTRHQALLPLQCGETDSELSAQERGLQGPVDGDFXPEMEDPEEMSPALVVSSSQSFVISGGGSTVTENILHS
Description: (§1) The cCaSR expression constructs were stably-transfected in the mammalian cell line, HEK293/ T-REx/ natClytin. Transfections were performed by electroporation, following standard methodologies. Stably-transfected target and mock pools were obtained after 2–3 weeks of antibiotic selection, and clones were selected for testing. In order to evaluate the activity of each clone, 10 mM Calcium was injected onto the cells and the resulting luminescence was measured.
(§2) All compounds screened on the receptor were analysed in parallel with Calcium, on the HEK293/ T-REx/ natClytin-cCaSR or hCaSR stable or transient cell lines. Prior to the measurements, the cells were incubated with 10 µM of photoprotein substrate, Coelenterazine, prepared in Calcium-free Tyrode’s buffer at 37 °C for 3–4 h. All the data was captured using a FLIPR Tetra (Molecular Devices). A single or double injection protocol was used to capture the data for potential agonists and PAMs, respectively. The compounds tested were all prepared at desired concentration in Calcium-Free Tyrode’s buffer supplemented with 0.5% DMSO. For the activity determination of potential agonists, the single injection protocol was used, with CaCl2 as the positive control for each run. Each compound was injected into specific wells and the luminescence signal was measured for 1 min. for each compound. For potential PAMs, the double injection protocol was used. The first injection was identical to the one described above for potential agonists. A 20 min. resting period followed the first injection and a second injection of 0.5 mM CaCl2 in Calcium-free Tyrode’s buffer was injected to all wells, and the resulting luminescence signal was again measured for 1 min for each compound.
Dose–response curves were established by plotting signal amplitudes versus agonist concentration. For each compound, the % of maximum response was determined using a standard formula as follows:
The half maximal effective concentrations (EC50) were identified by nonlinear regression using a variable slope model with the equation Y = Bottom + (X^Hillslope)*(Top–Bottom)/ (X^HillSlope + EC50^HillSlope), where Y is the agonist concentration, Top and Bottom are the plateaus in the same units as Y and HillSlope is the Slope factor or Hill slope. […] In these cases the EC50 was noted as being higher than the maximum concentration used in the assay.

[2] = molecular target: T1, cCaSR; experiment: cCaSR PAM luminescence assay, double injection with 0.5 mM CaCl2, HEK293/T-REx/natClytin-cCaSR; conditions: Supplementary Table I, PAM assay, dash = no activity
Description: as §1, §2
The half maximal effective concentrations (EC50) were identified by nonlinear regression using a variable slope model with the equation Y = Bottom + (X^Hillslope)*(Top–Bottom)/ (X^HillSlope + EC50^HillSlope), where Y is the agonist concentration, Top and Bottom are the plateaus in the same units as Y and HillSlope is the Slope factor or Hill slope. All calculations and plots were done using GraphPad Prism 8. […] In these cases the EC50 was noted as being higher than the maximum concentration used in the assay.

[3] = molecular target: domestic cat Calcium Sensing Receptor (cCaSR) (Felis catus)

N[C@@H](CCC(=O)N[C@@H](Cc1ccc(O)cc1)C(=O)O)C(=O)O [γ-Glu-Tyr]
EC50 ([1]; EC50 (M), stable inducible cCaSR line): 0.00388 M | EC50 ([1]; EC50 Ago (M), Supplementary Table I): 0.00388 M | pEC50 ([1]; cCaSR activity, stable inducible cCaSR line, at least three wells): 2.00 to 3.00 | EC50 PAM (M) [2]: -

Glutathione (peptide)
EC50 of agonist activity, luminescence (natClytin) in HEK T-Rex/natClytin cells inducibly expressing cCaSR, calcium-free buffer; activity grade ++ [3]: 6.39 mM

Poly-L-lysine (peptide)
EC50 of agonist activity, luminescence (natClytin) in HEK T-Rex/natClytin cells inducibly expressing cCaSR, calcium-free buffer; activity grade + [3]: > 10 mM

S-(2-Hydroxyethyl)glutathione (peptide)
EC50 of agonist activity, luminescence (natClytin) in HEK T-Rex/natClytin cells inducibly expressing cCaSR, calcium-free buffer; activity grade ++ [3]: 2.11 mM

S-Lactoylglutathione (peptide)
EC50 of agonist activity, luminescence (natClytin) in HEK T-Rex/natClytin cells inducibly expressing cCaSR, calcium-free buffer; activity grade + [3]: > 10 mM

S-Methylglutathione (peptide)
EC50 of agonist activity, luminescence (natClytin) in HEK T-Rex/natClytin cells inducibly expressing cCaSR, calcium-free buffer; activity grade ++ [3]: 4.42 mM

[βAsp]-Ala
EC50 of agonist activity, luminescence (natClytin) in HEK T-Rex/natClytin cells inducibly expressing cCaSR, calcium-free buffer; activity grade + [3]: > 10 mM

[βAsp]-Gly
EC50 of agonist activity, luminescence (natClytin) in HEK T-Rex/natClytin cells inducibly expressing cCaSR, calcium-free buffer; activity grade + [3]: > 10 mM

[βAsp]-Leu
EC50 of agonist activity, luminescence (natClytin) in HEK T-Rex/natClytin cells inducibly expressing cCaSR, calcium-free buffer; activity grade + [3]: 3.15 mM

[βAsp]-Phe
EC50 of agonist activity, luminescence (natClytin) in HEK T-Rex/natClytin cells inducibly expressing cCaSR, calcium-free buffer; activity grade + [3]: > 10 mM

[γGlu]-Ala
EC50 of agonist activity, luminescence (natClytin) in HEK T-Rex/natClytin cells inducibly expressing cCaSR, calcium-free buffer; activity grade + [3]: > 10 mM

[γGlu]-Cys
EC50 of agonist activity, luminescence (natClytin) in HEK T-Rex/natClytin cells inducibly expressing cCaSR, calcium-free buffer; activity grade + [3]: > 10 mM

[γGlu]-Gln
EC50 of agonist activity, luminescence (natClytin) in HEK T-Rex/natClytin cells inducibly expressing cCaSR, calcium-free buffer; activity grade + [3]: > 10 mM

[γGlu]-Glu
EC50 of agonist activity, luminescence (natClytin) in HEK T-Rex/natClytin cells inducibly expressing cCaSR, calcium-free buffer; activity grade ++ [3]: 2.07 mM

[γGlu]-Glu-Gln
EC50 of agonist activity, luminescence (natClytin) in HEK T-Rex/natClytin cells inducibly expressing cCaSR, calcium-free buffer; activity grade + [3]: > 10 mM

[γGlu]-Glu-Glu
EC50 of agonist activity, luminescence (natClytin) in HEK T-Rex/natClytin cells inducibly expressing cCaSR, calcium-free buffer; activity grade ++ [3]: 2.35 mM

[γGlu]-Gly
EC50 of agonist activity, luminescence (natClytin) in HEK T-Rex/natClytin cells inducibly expressing cCaSR, calcium-free buffer; activity grade + [3]: > 10 mM

[γGlu]-Leu
EC50 of agonist activity, luminescence (natClytin) in HEK T-Rex/natClytin cells inducibly expressing cCaSR, calcium-free buffer; activity grade + [3]: > 10 mM

[γGlu]-Met
EC50 of agonist activity, luminescence (natClytin) in HEK T-Rex/natClytin cells inducibly expressing cCaSR, calcium-free buffer; activity grade + [3]: > 10 mM

[γGlu]-Trp
EC50 of agonist activity, luminescence (natClytin) in HEK T-Rex/natClytin cells inducibly expressing cCaSR, calcium-free buffer; activity grade + [3]: > 10 mM

[γGlu]-Tyr
EC50 of agonist activity, luminescence (natClytin) in HEK T-Rex/natClytin cells inducibly expressing cCaSR, calcium-free buffer; activity grade ++ [3]: 3.88 mM

[γGlu]-Val
EC50 of agonist activity, luminescence (natClytin) in HEK T-Rex/natClytin cells inducibly expressing cCaSR, calcium-free buffer; activity grade ++ [3]: 4.52 mM

[γGlu]-Val-Gly
EC50 of agonist activity, luminescence (natClytin) in HEK T-Rex/natClytin cells inducibly expressing cCaSR, calcium-free buffer; activity grade ++ [3]: 4.22 mM

[γGlu]-[Abu]-Gly
EC50 of agonist activity, luminescence (natClytin) in HEK T-Rex/natClytin cells inducibly expressing cCaSR, calcium-free buffer; activity grade ++ [3]: 2.65 mM

γ-D-Glu-Trp (peptide)
EC50 of agonist activity, luminescence (natClytin) in HEK T-Rex/natClytin cells inducibly expressing cCaSR, calcium-free buffer; activity grade ++ [3]: 4.2 mM

γ-Glu-Abu (peptide)
EC50 of agonist activity, luminescence (natClytin) in HEK T-Rex/natClytin cells inducibly expressing cCaSR, calcium-free buffer; activity grade + [3]: > 10 mM

γ-Glu-Phe (peptide)
EC50 of agonist activity, luminescence (natClytin) in HEK T-Rex/natClytin cells inducibly expressing cCaSR, calcium-free buffer; activity grade ++ [3]: 2.32 mM
